Earlier results, collected in paper PMC4858162.

Target: DNA polymerase III beta sliding clamp (Escherichia coli) (UniProt P0A988)

DNA polymerase III beta sliding clamp (from UniProt P0A988)
Kd: < 0.06 nM
